Results published in patent US7910544B2, “Conformationally constrained parthyroid hormone (PTH) analogs” (The General Hospital Corporation, priority 2003, dated 2011).
pEC50: −log10 of the molar value. Non-standard residues stand in square brackets, D forms with d. No end group written: not given here. Bpa = N[C@@H](Cc1ccc(C(=O)c2ccccc2)cc1)C(=O)O; hArg = N=C(N)NCCCC[C@H](N)C(=O)O; Nle = CCCC[C@H](N)C(=O)O; Deg = CCC(N)(CC)C(=O)O

What was measured:
P1R-delNt [1] = target: T1, P1R-delNt (Homo sapiens, UniProt Q03431); test: Competitive antagonism on P1R-delNt (shift of agonist dose-response curve, cAMP); type: cell-based; conditions: for shift of agonist dose-response curve: agonist [Aib1,3,Tyr34]hPTH(1-34)NH2, antagonist 1×10−5 M, COS-7/P1R-delNt; for mechanism of inhibition: from shift of [Aib1,3,Tyr34]hPTH(1-34)NH2 dose-response curve
T1 construct: expressed in transfected cells; host or cells: COS-7
T1 sequence (Q03431 with tags, fused parts or gaps limits assumed): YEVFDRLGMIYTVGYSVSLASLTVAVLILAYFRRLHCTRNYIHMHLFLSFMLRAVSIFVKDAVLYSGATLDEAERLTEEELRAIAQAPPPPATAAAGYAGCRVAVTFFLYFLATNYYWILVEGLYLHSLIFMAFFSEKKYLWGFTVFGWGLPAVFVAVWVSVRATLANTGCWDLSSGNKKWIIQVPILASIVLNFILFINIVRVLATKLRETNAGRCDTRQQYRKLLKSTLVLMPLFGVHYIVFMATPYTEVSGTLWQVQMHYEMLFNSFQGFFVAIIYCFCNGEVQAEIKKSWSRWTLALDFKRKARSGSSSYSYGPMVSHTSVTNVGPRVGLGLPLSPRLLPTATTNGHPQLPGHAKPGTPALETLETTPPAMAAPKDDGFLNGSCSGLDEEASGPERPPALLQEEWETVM
From the text: FIG. 10. Competitive Antagonism on P1R-delNt. COS-7 cells transfected with P1R-delNt were stimulated with varying concentrations of the agonist [Aib^1,3,Tyr^34]hPTH(1-34)NH2 ([Aib^1,3]PTH(1-34)), either in the absence of antagonist or in the presence of an antagonist, [Deg^1,3,Bpa2,M]PTH(1-14) or [Deg^1,3,Bpa^2,M]PTH(1-21) each at 1×10−5 M, as indicated in the figure key.
(§1) Cell Culture. The cell line HKRK-B28 (Shimizu, el al., Biochem. 41: 13224-33 (2002)) was derived from the porcine kidney cell line, LLC-PK1 by stable transfection with plasmid DNA encoding the opossum/rat hybrid P1R and expresses ˜280,000 receptors per cell. The HKRK-B7 cell line was derived from the LLC-PK1 cell line by stable transfection with DNA encoding human P1R. HKRK-B7 cells expresses approximately 950,000 human P1R per cell (Takasu, H., et al., J. Bone Miner. Res. 14: 11-20 (1999)). These cells, as well as COS-7 cells and SaOS-2-B10 cells, are cultured at […] in T-75 flasks ([…]) in Dulbecco's modified Eagle's medium (DMEM) supplemented with fetal bovine serum (10%), penicillin G (20 units/ml), streptomycin sulfate (20 μg/ml) and amphotericin B (0.05 μg/ml) in a humidified atmosphere containing 5% Co2. Stock solutions of EGTA/trypsin and antibiotics are from GIBCO; fetal bovine serum is from Hyclone Laboratories (Logan, Utah). COS-7 cells sub-cultured in 24-well plates are transfected with plasmid DNA (200 ng per well) encoding the wild-type human P1R or truncated human P1R deleted for residues (24-181) (Shimizu, M., et al., J. Biol. Chem. 275: 21836-21843 (2000)) that is purified by cesium chloride/ethidium bromide density gradient centrifugation, and FuGENE 6 transfection reagent (Roche Indianapolis Ind.) according to the manufacturer's recommended procedure. All cells, in 24-well plates, are treated with fresh media and shifted to 33° C. for 12 to 24 h prior to assay.
(§2) cAMP Stimulation. Stimulation of cells with peptide analogs is performed in 24-well plates. Cells are rinsed with 0.5 mL of binding buffer (50 mM Tris-HCl, 100 mM NaCl, 5 mM KCl, 2 mM CaCl2, 5% heat-inactivated horse serum, 0.5% fetal bovine serum, adjusted to pH 7.5 with HCl) and treated with 200 μL of cAMP assay buffer (Delbecco's modified Eagle's medium containing 2 mM 3-isobutyl-1-methylxanthine, 1 mg/mL bovine serum albumin, 35 mM Hepes-NaOH, pH 7.4) and 100 μL of binding buffer containing varying amounts of peptide analog (final volume=300 μL). The medium is removed after incubation for 30 to 60 minutes at room temperature, and the cells are frozen on dry ice, lysed with 0.5 mL 50 mM HCl, and refrozen ([…]). The cAMP content of the diluted lysate is determined by radioimmunoassay. The EC50 response values are calculated using nonlinear regression (see below).
The pharmacologic mechanism by which [Deg^1,3,BPA^2,Nle^8,Gln^10,Har^11,Ala^12,Trp^14,Arg^19,Tyr^21]PTH(1-21)NH2 and [Deg^1,3,Bpa^2,Gln^10,Har^11,Ala^12,Trp^14]PTH(1-14)NH2 function as antagonists was investigated in FIG. 10. In this study, the effects of the antagonists at […], on the dose-response curve elicited by the agonist [Aib^1,3,Tyr^34]hPTH(1-34)NH2 were examined in […].

P1R-delNt [2] = target: T1, P1R-delNt; test: cAMP antagonism assay in COS-7 cells transfected with P1R-delNt; type: cell-based; conditions: for antagonism of agonist-induced cAMP response: P1R-delNt, antagonist 1×10−5 M; for N versus J domain selectivity of P1R antagonist: concluded from cAMP antagonism on wild-type P1R and P1R-delNt in COS-7 cells
Experimental: (§3) FIG. 8. “N” versus “J” Domain selectivity of P1R Antagonists in COS-7 Cells. cAMP antagonism assays were performed in COS-7 cells transfect with the wild-type P1R (A), or a P1R derivative (P1R-delNt) having most (residues 24-181) of the P1R N domain deleted (B). Cells were treated with the agonist [Aib^1,3,Tyr^34]hpTH(1-34)NH2 ([Aib^1,3]PTH(1-34)), which utilizes both N and J domains for affinity/potency, or with [Ac5c^1, Aib^3, Gln^10,Har^11,Ala^12,Trp^14]PTH(1-14)NH2 ([Ac5c^1]PTH(1-14)), which uses only the J domain for affinity/potency, at the concentrations indicated in the key, so as to elicit half-maximum cAMP responses in the absence of antagonist (none). The analogs PTHrP(5-36) and Deg^1,3,Bpa^2-PTH(1-21) were added at 1×10−5 M, as indicated.
as §1, §2
“N” versus “J” domain selectivity of P1R antagonists was investigated in COS-7 Cells (FIG. 8). cAMP antagonism assays were performed in COS-7 cells transfect with the wild-type P1R (A), or a P1R derivative (P1R-delNt) having most (residues 24-181) of the P1R N domain deleted (B). Cells were treated with the agonist [Aib^1,3,Tyr^34]hPTH(1-34)NH2 ([Aib^1,3]PTH(1-34)), which utilizes both N and J domains for affinity/potency, or with [Ac5c^1,Aib^3,Gln^10,Har^11,Ala^12,Trp^14]PTH(1-14)NH2 ([Ac5c^1]PTH(1-14)), which uses only the J domain for affinity/potency, at the concentrations indicated in the key, so as to elicit half-maximum cAMP responses in the absence of antagonist (none). The analogs PTHrP(5-36) and Deg^1,3,Bpa^2-PTH(1-21) were added at 1×10−5 M, as indicated.

wild-type P1R = target: T2, wild-type P1R (Homo sapiens, UniProt Q03431); test: cAMP antagonism assay in COS-7 cells transfected with wild-type P1R; type: cell-based; conditions: WT receptor; agonist [Ac5c1,Aib3,Gln10,Har11,Ala12,Trp14]PTH(1-14)NH2; antagonist 1×10−5 M; listed as Deg^1,3,Bpa^2-PTH(1-21)
T2 construct: expressed in transfected cells; host or cells: COS-7
T2 sequence (Q03431 27-593): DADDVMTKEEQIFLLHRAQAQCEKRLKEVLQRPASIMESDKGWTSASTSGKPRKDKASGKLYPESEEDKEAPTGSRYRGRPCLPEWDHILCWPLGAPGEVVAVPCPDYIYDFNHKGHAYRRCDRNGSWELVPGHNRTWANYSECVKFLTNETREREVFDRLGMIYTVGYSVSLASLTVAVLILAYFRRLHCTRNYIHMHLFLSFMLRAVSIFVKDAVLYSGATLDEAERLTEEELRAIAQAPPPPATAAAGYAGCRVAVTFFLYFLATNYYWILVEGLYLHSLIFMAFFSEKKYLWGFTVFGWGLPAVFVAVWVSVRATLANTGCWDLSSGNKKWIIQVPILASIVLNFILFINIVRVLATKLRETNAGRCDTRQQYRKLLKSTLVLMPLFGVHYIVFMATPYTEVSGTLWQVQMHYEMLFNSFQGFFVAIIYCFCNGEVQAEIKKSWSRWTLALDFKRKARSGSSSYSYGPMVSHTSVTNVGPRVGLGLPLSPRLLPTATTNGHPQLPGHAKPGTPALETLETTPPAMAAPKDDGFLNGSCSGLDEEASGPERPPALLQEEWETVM
Experimental: as §3
Cell Culture. The cell line HKRK-B28 (Shimizu, el al., Biochem. 41: 13224-33 (2002)) was derived from the porcine kidney cell line, LLC-PK1 by stable transfection with plasmid DNA encoding the opossum/rat hybrid P1R and expresses ˜280,000 receptors per cell. The HKRK-B7 cell line was derived from the LLC-PK1 cell line by stable transfection with DNA encoding human P1R. […]
cAMP Stimulation. […] The cAMP content of the diluted lysate is determined by radioimmunoassay. The EC50 response values are calculated using nonlinear regression (see below). […]

P1R = target: T3, P1R (Homo sapiens, UniProt Q03431); conditions: literature (Luck et al. 1999); read-out: cAMP-signaling potency EC50; cited from earlier work
T3 sequence (Q03431 27-593): T2 sequence (Q03431 27-593)

Substance	shift of agonist dose-response curve (P1R-delNt [1])	shift of agonist dose-response curve (P1R-delNt [1]; listed as [Deg^1,3,Bpa^2,M]PTH(1-21))	mechanism of inhibition (P1R-delNt [1])	antagonism of agonist-induced cAMP response (P1R-delNt [2]; agonist [Ac5c1,Aib3,Gln10,Har11,Ala12,Trp14]PTH(1-14)NH2)	antagonism of agonist-induced cAMP response (P1R-delNt [2]; agonist [Ac5c1,Aib3,Gln10,Har11,Ala12,Trp14]PTH(1-14)NH2, listed as Deg^1,3,Bpa^2-PTH(1-21))	antagonism of agonist-induced cAMP response (P1R-delNt [2]; agonist [Aib1,3,Tyr34]hPTH(1-34)NH2)	antagonism of agonist-induced cAMP response (P1R-delNt [2]; agonist [Aib1,3,Tyr34]hPTH(1-34)NH2, listed as Deg^1,3,Bpa^2-PTH(1-21))	N versus J domain selectivity of P1R antagonist (P1R-delNt [2])	N versus J domain selectivity of P1R antagonist (P1R-delNt [2]; listed as Deg^1,3,Bpa^2-PTH(1-21))	antagonism of agonist-induced cAMP response (wild-type P1R)	shift of agonist dose-response curve (P1R-delNt [1]; listed as [Deg^1,3,Bpa2,M]PTH(1-14))	pEC50 (P1R)
DegBpaDegGluIleGlnLeuNleHisGlnHarAlaLysTrpLeuAlaSerValArgArgTyrNH2 ([Deg][Bpa][Deg]EIQL[Nle]HQ[hArg]AKWLASVRRY-NH2; N-terminus assumed; SMILES CCCC[C@H](NC(=O)[C@H](CC(C)C)NC(=O)[C@H](CCC(N)=O)NC(=O)[C@@H](NC(=O)[C@H](CCC(=O)O)NC(=O)C(CC)(CC)NC(=O)[C@H](Cc1ccc(C(=O)c2ccccc2)cc1)NC(=O)C(N)(CC)CC)[C@@H](C)CC)C(=O)N[C@@H](Cc1c[nH]cn1)C(=O)N[C@@H](CCC(N)=O)C(=O)N[C@@H](CCCCNC(=N)N)C(=O)N[C@@H](C)C(=O)N[C@@H](CCCCN)C(=O)N[C@@H](Cc1c[nH]c2ccccc12)C(=O)N[C@@H](CC(C)C)C(=O)N[C@@H](C)C(=O)N[C@@H](CO)C(=O)N[C@H](C(=O)N[C@@H](CCCNC(=N)N)C(=O)N[C@@H](CCCNC(=N)N)C(=O)N[C@@H](Cc1ccc(O)cc1)C(N)=O)C(C)C)	rightward and parallel shift in the agonist response curve	parallel, right-ward shift in the agonist dose-response curve	competitive	strongly inhibited	antagonizes either agonist	strongly inhibited	antagonizes either agonist	potent J-domain selective antagonist	J domain-selective antagonist	antagonizes PTH(1- 14), more effectively than does PTHrP(5-36)		
DegBpaDegGluIleGlnLeuMetHisGlnHarAlaLysTrpNH2 ([Deg][Bpa][Deg]EIQLMHQ[hArg]AKW-NH2; N-terminus assumed; SMILES CC[C@H](C)[C@H](NC(=O)[C@H](CCC(=O)O)NC(=O)C(CC)(CC)NC(=O)[C@H](Cc1ccc(C(=O)c2ccccc2)cc1)NC(=O)C(N)(CC)CC)C(=O)N[C@@H](CCC(N)=O)C(=O)N[C@@H](CC(C)C)C(=O)N[C@@H](CCSC)C(=O)N[C@@H](Cc1c[nH]cn1)C(=O)N[C@@H](CCC(N)=O)C(=O)N[C@@H](CCCCNC(=N)N)C(=O)N[C@@H](C)C(=O)N[C@@H](CCCCN)C(=O)N[C@@H](Cc1c[nH]c2ccccc12)C(N)=O)	rightward and parallel shift in the agonist response curve		competitive					behaved similarly in these assays to Deg^1,3,Bpa^2-PTH(1-21)			parallel, right-ward shift in the agonist dose-response curve	
PTH(1-34): first 34 amino acids of parathyroid hormone												~8.70
